Experimental data published in the supplement of paper PMC12764529.
± gives the half width of the 95% confidence interval.

Legend:
[1] = folding stability dG unfold from trypsin proteolysis; higher = more stable
Procedure, shortened: (§1)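 K50 was inferred by Bayesian fitting of sequencing counts obtained after protease digestion of designed mini-proteins. Unfolding free energy was derived by comparison with a sequence-predicted unfolded-state K50 and a shared folded-state K50, for each protease or both combined. The mini-proteins were under 80 residues, had no cysteine, were carried in a PA-tagged cDNA display construct, and were kept only if AlphaFold2 dimer inter-PAE exceeded 15.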

[2] = folding stability dG unfold from chymotrypsin proteolysis; higher = more stable
Procedure, shortened: as §1

[3] = folding stability dG unfold (combined trypsin and chymotrypsin); higher = more stable
Procedure, shortened: as §1

Sequence	folding stability dG unfold [1]	folding stability dG unfold [2]	folding stability dG unfold [3]
SAGGSGMEKYTVTIDLKFYTPETGKTYTKTVTLTTTSIEEAIKAITEKLTPPDMKIEITSITVTPSSAGGSA [r2_320_JUSTAS]	4.34 ± 0.25 kcal/mol	4.62 ± 0.11 kcal/mol	4.62 ± 0.13 kcal/mol
SAGGSGMIPVTVDFPPDVSEEEIKAYVEELEKKGYKVLKVEITTEKDAKGNTLRTVTVVLAPPSLLSAGGSA [r2_442_JUSTAS]	3.14 ± 0.048 kcal/mol	3.143 ± 0.02 kcal/mol	3.15 ± 0.048 kcal/mol
SAGGSGMTVEVSVDPSTGTIRIKIKYGDKEYEVTAPVTRLPDGTYAVELKISAPNGPLLETKEITLPLSAGG [r13_59_JUSTAS]	2.46 ± 0.086 kcal/mol	1.76 ± 0.024 kcal/mol	2.06 ± 0.087 kcal/mol
SAGGSGMVRQEHEYRGPNGWHMRSEMYYSPENGMMNMEMEWVPVIKLPEDDPAKLKKLLAKEGIPISAGGSA [r2_304_TrROS]	0.119 ± 0.16 kcal/mol	1.19 ± 0.099 kcal/mol	0.803 ± 0.17 kcal/mol
SAGGSGPLLERALEEIREALAKAKEGEEVEIEVKVTVTGPDGRTREFTFRIRFVVKDGKIVKVEIESAGGSA [r2_173_TrROS_Hall]	3.74 ± 0.22 kcal/mol	4.94 ± 0.085 kcal/mol	4.66 ± 0.14 kcal/mol
SAGGSGPMTRSITITVTPEIVRDEKGNVTATKYTVTITRSPEVSPEEVEALAAELNAAGIPTTVTPSAGGSA [r2_456_JUSTAS]	1.23 ± 0.026 kcal/mol	1.65 ± 0.099 kcal/mol	1.5 ± 0.083 kcal/mol
SAGGSGRQMVRNIVRHALDQQQQHGKPIDKIYIFGPPNMRKEIKKELEEEGLPPGVKITIVPAEDMQSAGGS [r16_164_TrROS]	0.761 ± 0.13 kcal/mol	0.101 ± 0.51 kcal/mol	0.326 ± 0.37 kcal/mol
SAGGSGSQEVDIDFKFPPNFNMDELAKKIEELPGIDIKPDRYDPENGTYKITINVNDPQAVREIIRSAGGSA [r2_305_TrROS]	0.0473 ± 0.16 kcal/mol	-0.497 ± 0.69 kcal/mol	-0.483 ± 0.5 kcal/mol
SAGGSGTESKEYPDSKVTVTPVPLPLGDGAPVLRVTTVPKLPNGEPVTTVTLVDPDSDVVVTEETLSAGGSA [r2_484_JUSTAS]	-0.0208 ± 0.028 kcal/mol	0.925 ± 0.012 kcal/mol	0.598 ± 0.044 kcal/mol
SAGGSIEEAKKAAEKLAKEIAEKKGWTVKSVEVEKLPDGTVRATITIKYPDGSEETIEVTIPPNTPLSAGGS [r8_175_JUSTAS]	2.63 ± 0.11 kcal/mol	0.954 ± 0.039 kcal/mol	1.91 ± 0.14 kcal/mol
SAGGSIEELAEELARRFAEENGAAEVRVEVEGLPDNTVLVRVYVRGPDGELLGVVDALIPVPEDELSAGGSA [r2_153_TrMRF]	1.94 ± 0.045 kcal/mol	2.09 ± 0.062 kcal/mol	2.05 ± 0.085 kcal/mol
SAGGSIEEVIEELIKSGKPPSKEEIKEAIKKAIEEEVKKKGKKIPKVNIKKITSNPETGKIPIEIIISAGGS [r16_365_JUSTAS]	-0.757 ± 0.41 kcal/mol	0.784 ± 0.056 kcal/mol	0.356 ± 0.17 kcal/mol
SAGGSIKIDEIEPDPPGDRVKVKMDIPVPMYDPNGKPKEPMPIKITAEARVDPENGELAINMDIEMSAGGSA [r2_220_TrROS]	2.73 ± 0.41 kcal/mol	1.4 ± 0.33 kcal/mol	1.67 ± 0.53 kcal/mol
SAGGSISVEELKKLPPDSTLTYTEGDKLYEIKVYKNPEGALSIEITEIDPNTGSPVKTEIVNLEELLSAGGS [r16_763_JUSTAS]	1.63 ± 0.13 kcal/mol	3.53 ± 0.075 kcal/mol	3.21 ± 0.12 kcal/mol
SAGGSITVSEDESNLTFTIPVPPTEPLTPEEVRAAAEALLAELGPDIRVLSIERLPDGGYRVEAEVRSAGGS [r8_103_JUSTAS]	2.08 ± 0.033 kcal/mol	1.6 ± 0.043 kcal/mol	1.87 ± 0.037 kcal/mol
SAGGSIVDRIRKILKEYGYTAQVERNGDGITIVVQFNKEQRKKIVSEIQEDFGYPIKIEVMPPGQELSAGGS [r16_514_TrROS]	1.97 ± 0.06 kcal/mol	1.94 ± 0.027 kcal/mol	2.03 ± 0.11 kcal/mol
SAGGSKIIITYDKEKNVITIKVEKNGKLLEITIEVKSKEDLEEALKKAEELAKELEKKGYKVEIIPSAGGSA [r2_118_TrROS_Hall]	1.95 ± 0.12 kcal/mol	2.31 ± 0.07 kcal/mol	2.15 ± 0.2 kcal/mol
SAGGSKIRIVEIQPSNGFTIKIRPKNGKKMTIPIPPDDMNDPENWERFARTLAKWFEKNGVKDIEISAGGSA [r2_249_TrROS]	0.312 ± 0.17 kcal/mol	0.615 ± 0.37 kcal/mol	0.538 ± 0.26 kcal/mol
SAGGSKKKIYKIKIKIEVINEETGEKKTVEIEIEAESLEEALAAIAKALLPEGQTVKIVDIEIEEVSAGGSA [r2_320_TrROS_Hall]	3.42 ± 0.069 kcal/mol	3.89 ± 0.079 kcal/mol	3.73 ± 0.085 kcal/mol
SAGGSKLKNLKSKPFPITFENGGKVTLNVVNIPKSSKPVVNITVIEPNSGKKKTFTVPLEEAKNLLSAGGSA [r2_366_TrMRF]	0.394 ± 0.071 kcal/mol	1.16 ± 0.12 kcal/mol	0.869 ± 0.089 kcal/mol
SAGGSKPEKIKVVSVEVFPDGLIKVKVKTESGYEATALIVKLPGDKYLIFLTIPANGKPFVFELPASAGGSA [r2_361_TrMRF]	2.36 ± 0.059 kcal/mol	2.61 ± 0.031 kcal/mol	2.54 ± 0.072 kcal/mol
SAGGSKTVTLTVTVEVNGKTFTVTVTLTYDEETNKLTITVEISAKSEEERERARELVEKLLKELLSSAGGSA [r2_259_TrROS_Hall]	3.83 ± 0.12 kcal/mol	4.95 ± 0.094 kcal/mol	4.79 ± 0.13 kcal/mol
SAGGSKTVTVTVRIKVTNEDGEELTVTARLTYNEETGEVTVEIEMSPEALERLRELFPDVKIEIYPSAGGSA [r2_409_TrROS_Hall]	4.08 ± 0.22 kcal/mol	3.09 ± 0.13 kcal/mol	3.9 ± 0.32 kcal/mol
SAGGSKVTLEVNEDGTVTLTVTRPDGKKVTLTITKNEDGTYTIRDEETGKTITVPAGMSIEELLKASAGGSA [r2_338_TrROS_Hall]	3.69 ± 0.12 kcal/mol	5.17 ± 0.14 kcal/mol	5.09 ± 0.1 kcal/mol
SAGGSLKIKIRNPDGMPFKIDVVRYPNHIRIKFKFGNKPVAFMIDPESDTINFRIPGWPFQIEIEPSAGGSA [r2_194_TrROS]	2.96 ± 0.096 kcal/mol	3.39 ± 0.092 kcal/mol	3.26 ± 0.15 kcal/mol
SAGGSLPELLKLAKELAKKLGAKDLTAKESGEITIKSPENITITVSTEDGEPVVTINNTSTSSTIPLSAGGS [r16_296_JUSTAS]	-0.36 ± 0.32 kcal/mol	-0.185 ± 0.22 kcal/mol	-0.18 ± 0.26 kcal/mol
